Paper PMC6744478

Experiments:
[1] = target: R7BPΔNC (construct R7BPΔNC-TEV-TS) (human) (UniProt Q6MZT1); assay: SPR; OpenSPR (Nicoya), Streptavidin sensor chip; tagged R7BP variant as ligand, purified R7-RGS/Gβ5 duplex as analyte at 3–5 concentrations; PBS pH 7.4, 0.005% Tween20; 25 µL per minute; 1:1-binding model; two independent experiments
[2] = target: RGS7/TS-Gβ5 duplex (human) (UniProt P49802); assay: pull-down; Expi293 cells co-transfected with RGS7, TS-Gβ5, R7BP-HIS and either WDR61 (sample A) or R7BPΔNC (sample B); lysate on MagStrep type3 XT beads, 4 °C, one hour; Western blot with anti-Gβ5 and anti-R7BP, bands quantified
Sequence of RGS7/TS-Gβ5 duplex (human) (P49802 whole entry, chain 1 of 2): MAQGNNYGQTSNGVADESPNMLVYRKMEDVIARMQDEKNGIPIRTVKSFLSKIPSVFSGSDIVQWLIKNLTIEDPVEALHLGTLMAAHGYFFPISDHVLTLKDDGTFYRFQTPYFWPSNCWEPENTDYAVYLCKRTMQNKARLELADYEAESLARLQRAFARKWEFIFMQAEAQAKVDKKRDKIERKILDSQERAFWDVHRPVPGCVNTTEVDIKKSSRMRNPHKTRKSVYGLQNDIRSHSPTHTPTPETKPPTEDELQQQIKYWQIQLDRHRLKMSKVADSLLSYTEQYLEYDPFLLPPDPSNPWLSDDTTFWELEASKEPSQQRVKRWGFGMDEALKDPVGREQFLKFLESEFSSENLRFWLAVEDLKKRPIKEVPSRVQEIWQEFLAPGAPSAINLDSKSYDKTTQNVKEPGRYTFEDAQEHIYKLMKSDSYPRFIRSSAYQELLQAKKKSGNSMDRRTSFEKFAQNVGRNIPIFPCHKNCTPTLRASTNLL
Sequence of RGS7/TS-Gβ5 duplex (human) (O14775 43-395, chain 2 of 2, further chain): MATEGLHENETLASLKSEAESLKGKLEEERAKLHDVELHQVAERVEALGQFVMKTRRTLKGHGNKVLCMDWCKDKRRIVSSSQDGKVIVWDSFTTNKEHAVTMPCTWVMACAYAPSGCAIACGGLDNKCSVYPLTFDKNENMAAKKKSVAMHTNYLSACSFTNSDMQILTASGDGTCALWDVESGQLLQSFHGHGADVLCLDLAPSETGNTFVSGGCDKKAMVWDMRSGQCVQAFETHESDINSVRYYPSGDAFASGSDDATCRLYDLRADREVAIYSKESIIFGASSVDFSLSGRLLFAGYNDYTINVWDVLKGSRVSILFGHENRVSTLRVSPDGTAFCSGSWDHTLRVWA

Sequence of RGS9/Gβ5 duplex (O75916 whole entry): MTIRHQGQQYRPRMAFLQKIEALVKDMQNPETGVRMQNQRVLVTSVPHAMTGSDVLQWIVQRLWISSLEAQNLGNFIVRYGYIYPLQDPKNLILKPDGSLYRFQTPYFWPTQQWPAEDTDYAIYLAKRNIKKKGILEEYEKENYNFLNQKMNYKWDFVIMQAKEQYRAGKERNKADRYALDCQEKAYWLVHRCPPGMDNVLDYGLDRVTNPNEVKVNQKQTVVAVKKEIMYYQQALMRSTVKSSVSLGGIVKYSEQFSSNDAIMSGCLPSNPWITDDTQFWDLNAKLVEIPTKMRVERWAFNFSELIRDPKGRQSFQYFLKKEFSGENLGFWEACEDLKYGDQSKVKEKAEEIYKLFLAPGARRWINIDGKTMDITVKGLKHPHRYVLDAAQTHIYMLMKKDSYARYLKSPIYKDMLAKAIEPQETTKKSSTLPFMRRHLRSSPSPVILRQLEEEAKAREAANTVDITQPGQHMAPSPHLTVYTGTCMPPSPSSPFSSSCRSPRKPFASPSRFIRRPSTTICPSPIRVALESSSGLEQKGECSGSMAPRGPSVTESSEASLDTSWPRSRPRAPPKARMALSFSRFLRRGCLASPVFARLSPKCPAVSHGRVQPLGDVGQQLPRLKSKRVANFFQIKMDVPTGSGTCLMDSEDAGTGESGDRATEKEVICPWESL
Sequence of RGS9/Gβ5 duplex (O14775 43-395): as the sequence (O14775 43-395, chain 2 of 2, further chain) above
Sequence of RGS6/Gβ5 duplex (P49758 whole entry): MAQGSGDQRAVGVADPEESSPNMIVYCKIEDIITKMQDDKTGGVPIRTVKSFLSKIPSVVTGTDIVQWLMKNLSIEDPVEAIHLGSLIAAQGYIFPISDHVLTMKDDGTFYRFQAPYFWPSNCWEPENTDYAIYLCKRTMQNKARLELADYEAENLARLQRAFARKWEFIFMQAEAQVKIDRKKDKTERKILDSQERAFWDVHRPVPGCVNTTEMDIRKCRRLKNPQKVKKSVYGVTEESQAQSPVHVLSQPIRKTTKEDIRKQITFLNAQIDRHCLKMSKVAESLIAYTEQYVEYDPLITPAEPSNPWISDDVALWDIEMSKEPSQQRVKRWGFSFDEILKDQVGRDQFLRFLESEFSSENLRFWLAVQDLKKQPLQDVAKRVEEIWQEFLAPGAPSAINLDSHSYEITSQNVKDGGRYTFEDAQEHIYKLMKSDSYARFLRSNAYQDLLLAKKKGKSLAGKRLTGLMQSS
Sequence of RGS6/Gβ5 duplex (O14775 43-395): as the sequence (O14775 43-395, chain 2 of 2, further chain) above
Sequence of RGS7/Gβ5 duplex (P49802 whole entry): as the sequence (P49802 whole entry, chain 1 of 2) above
Sequence of RGS7/Gβ5 duplex (O14775 43-395): as the sequence (O14775 43-395, chain 2 of 2, further chain) above
Sequence of RGS11/Gβ5 duplex (O94810 whole entry): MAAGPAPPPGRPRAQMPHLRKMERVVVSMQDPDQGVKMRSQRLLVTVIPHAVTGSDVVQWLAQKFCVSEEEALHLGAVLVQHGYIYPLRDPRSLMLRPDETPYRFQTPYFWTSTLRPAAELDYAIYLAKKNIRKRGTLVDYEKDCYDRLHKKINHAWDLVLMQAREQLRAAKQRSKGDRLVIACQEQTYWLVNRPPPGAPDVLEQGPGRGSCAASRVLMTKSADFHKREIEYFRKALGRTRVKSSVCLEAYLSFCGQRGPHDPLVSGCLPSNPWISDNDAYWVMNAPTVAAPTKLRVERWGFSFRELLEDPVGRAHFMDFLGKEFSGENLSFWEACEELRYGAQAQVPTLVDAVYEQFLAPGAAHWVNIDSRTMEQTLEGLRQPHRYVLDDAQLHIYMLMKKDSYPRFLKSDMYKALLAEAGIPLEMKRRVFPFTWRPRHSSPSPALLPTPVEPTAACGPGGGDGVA
Sequence of RGS11/Gβ5 duplex (O14775 43-395): as the sequence (O14775 43-395, chain 2 of 2, further chain) above

Row | Substance | Kd [1] [nM] | percent reduction of the binding of R7BP-FL with the RGS7/Gβ5 duplex [2] [%]
1 | RGS6/Gβ5 duplex (from UniProt P49758 1-472; O14775-2 1-353) (complex) | 1.5 | –
2 | RGS9/Gβ5 duplex (from UniProt O75916 1-674; O14775-2 1-353) (complex) | 3.2 | –
3 | RGS11/Gβ5 duplex (from UniProt O94810 1-467; O14775-2 1-353) (complex) | 1.5 | –
4 | RGS7/Gβ5 duplex (from UniProt P49802 1-495; O14775-2 1-353) (complex) | 2.3 | –
5 | R7BPΔNC (construct R7BPΔNC-TEV-TS) (from UniProt Q6MZT1 21-223) (domain or fragment) | – | 50
